Laboratory results published in IntAct's records for PubMed 9025305.

What was measured:
[1] = target: rbp1a_arath RANBP1A (UniProt Q9LMK7)
[2] = target: rbp1b_arath RANBP1B (UniProt Q8RWG8)
Chain of rbp1b_arath RANBP1B (Q8RWG8 whole entry): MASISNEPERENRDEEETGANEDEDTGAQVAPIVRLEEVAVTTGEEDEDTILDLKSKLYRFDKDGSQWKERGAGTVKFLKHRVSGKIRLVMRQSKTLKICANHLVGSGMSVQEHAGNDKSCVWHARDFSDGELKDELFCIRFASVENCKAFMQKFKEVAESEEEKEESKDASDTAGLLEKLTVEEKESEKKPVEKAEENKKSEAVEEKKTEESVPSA

Chain of GTP-binding nuclear protein Ran-1 (Arabidopsis thaliana (Mouse-ear cress)), P41916 T24D (P41916 whole entry T24D): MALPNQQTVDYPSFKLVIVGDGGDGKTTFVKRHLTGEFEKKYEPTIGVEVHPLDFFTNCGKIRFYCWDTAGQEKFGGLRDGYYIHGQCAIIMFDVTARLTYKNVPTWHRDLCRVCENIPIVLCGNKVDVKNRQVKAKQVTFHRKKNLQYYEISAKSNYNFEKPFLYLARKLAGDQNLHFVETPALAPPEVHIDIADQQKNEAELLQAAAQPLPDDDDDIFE
Chain of rbp1a_arath RANBP1A (Q9LMK7 whole entry): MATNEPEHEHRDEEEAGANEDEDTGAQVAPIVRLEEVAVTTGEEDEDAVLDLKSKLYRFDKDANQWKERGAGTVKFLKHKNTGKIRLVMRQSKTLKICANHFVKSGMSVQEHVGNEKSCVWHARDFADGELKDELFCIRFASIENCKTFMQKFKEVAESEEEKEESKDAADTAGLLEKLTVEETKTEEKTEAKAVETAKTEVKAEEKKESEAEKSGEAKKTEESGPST

effect of a mutation on the interaction [1]: disrupting interaction
effect of a mutation on the interaction [2]: disrupting interaction
Substance: GTP-binding nuclear protein Ran-1 (Arabidopsis thaliana (Mouse-ear cress)), P41916 T24D
